Data reported in patent US20040234530A1 (WISCONSIN ALUMNI RESEARCH FOUNDATION, published 2004).

Target: T1, StcE′ E435D-His (as StcE′-His with glutamic to aspartic acid at residue 435; from pTB5, strain WAM2804) (E. coli O157:H7 EDL933 (plasmid pO157), UniProt O82882 36-898)
T1 sequence: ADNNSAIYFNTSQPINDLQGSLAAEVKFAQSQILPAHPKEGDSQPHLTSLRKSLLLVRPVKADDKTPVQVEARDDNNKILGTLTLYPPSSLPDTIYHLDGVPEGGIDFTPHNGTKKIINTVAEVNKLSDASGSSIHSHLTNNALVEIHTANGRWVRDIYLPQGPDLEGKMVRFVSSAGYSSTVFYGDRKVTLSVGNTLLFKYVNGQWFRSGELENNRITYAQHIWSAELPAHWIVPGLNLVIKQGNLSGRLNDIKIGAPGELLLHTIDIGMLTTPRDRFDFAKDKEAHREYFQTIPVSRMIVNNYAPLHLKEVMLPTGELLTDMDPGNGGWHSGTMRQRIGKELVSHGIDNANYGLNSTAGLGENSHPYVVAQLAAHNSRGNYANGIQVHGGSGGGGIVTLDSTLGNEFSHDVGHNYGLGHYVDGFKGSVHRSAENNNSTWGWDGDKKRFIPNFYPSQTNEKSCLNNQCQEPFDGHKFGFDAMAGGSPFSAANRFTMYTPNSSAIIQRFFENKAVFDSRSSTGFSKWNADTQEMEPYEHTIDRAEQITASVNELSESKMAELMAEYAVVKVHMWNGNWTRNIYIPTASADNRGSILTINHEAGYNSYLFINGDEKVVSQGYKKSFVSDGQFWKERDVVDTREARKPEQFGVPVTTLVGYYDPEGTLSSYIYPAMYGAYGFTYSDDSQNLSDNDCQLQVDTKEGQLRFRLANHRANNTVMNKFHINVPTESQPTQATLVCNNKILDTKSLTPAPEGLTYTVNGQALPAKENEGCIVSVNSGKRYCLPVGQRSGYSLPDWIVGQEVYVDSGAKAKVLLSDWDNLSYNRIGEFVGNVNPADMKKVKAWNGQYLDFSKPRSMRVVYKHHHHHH

B1: C1-esterase inhibitor (human plasma protease C1 inhibitor), purified or in human serum (other, UniProt P05155 23-500, looked up)
chain: NPNATSSSSQDPESLQDRGEGKVATTVISKMLFVEPILEVSSLPTTNSTTNSATKITANTTDEPTTQPTTEPTTQPTIQPTQPTTQLPTDSPTQPTTGSFCPGPVTLCSDLESHSTEAVLGDALVDFSLKLYHAFSAMKKVETNMAFSPFSIASLLTQVLLGAGENTKTNLESILSYPKDFTCVHQALKGFTTKGVTSVSQIFHSPDLAIRDTFVNASRTLYSSSPRVLSNNSDANLELINTWVAKNTNNKISRLLDSLPSDTRLVLLNAIYLSAKWKTTFDPKKTRMEPFHFKNSVIKVPMMNSKKYPVAHFIDQTLKAKVGQLQLSHNLSLVILVPQNLKHRLEDMEQALSPSVFKAIMEKLEMSKFQPTLLTLPRIKVTTSQDMLSIMEKLEFFDFSYDLNLCGLTEDPDLQVSAMQHQTVLELTETGVEAAAASAISVARTLLVFEVQQPFLFVLWDQQHKFPVFMGRVYDPRA
modifications: heavily glycosylated N-terminal domain
fold level of C1-INH on erythrocyte surfaces against that in the presence of StcE′-His: 22 fold
